Results taken from patent US20250066499A1 (SUNSHINE GUOJIAN PHARMACEUTICAL SHANGHAI, published 2025).

Legend:
Assay in all cases: ELISA; decline multiple of EC50 against CD73-ND
CD73-ND-his = target: T1, CD73-ND-his (human, UniProt P21589 27-317)
T1 construct: Biotinylated and captured on streptavidin in the ELISA
T1 sequence: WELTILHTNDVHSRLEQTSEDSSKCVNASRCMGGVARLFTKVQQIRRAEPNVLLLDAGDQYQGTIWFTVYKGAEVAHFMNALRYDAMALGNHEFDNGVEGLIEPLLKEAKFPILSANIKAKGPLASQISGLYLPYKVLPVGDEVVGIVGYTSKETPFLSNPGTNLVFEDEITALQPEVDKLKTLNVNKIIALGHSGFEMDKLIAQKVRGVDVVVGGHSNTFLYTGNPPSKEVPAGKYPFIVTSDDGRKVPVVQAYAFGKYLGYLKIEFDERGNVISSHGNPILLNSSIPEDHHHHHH
Procedure: (§1) The ELISA plates were coated with SA protein diluted to 1.5 μg/mL in coating buffer (50 mM carbonate coating buffer, pH 9.6) and incubated overnight at 4° C. The supernatant was discarded, and the plates were washed three times with PBST. Then, 5% skimmed milk powder prepared with PBS was added for blocking and the plates were incubated for 2 h at 37° C. After washing the plates once with PBST, CD73-biotin protein (prepared by biotinylating CD73-His protein according to the EZ-Link NHS-Biotin Reagent instructions) was diluted to 0.5 μg/mL and added at 100 μL/well for incubation at room temperature for 1 h. The plates were washed three times with PBST, and the prepared murine-derived monoclonal antibodies against human CD73 were serially diluted with 1% BSA buffer prepared with PBST and added to the ELISA plates at 100 μl/well. The plates were incubated at 37° C. for 1 h. After washing the plates three times with PBST, HRP-labeled goat anti-mouse IgG secondary antibody was added and the plates were incubated for 30 min at 37° C. After washing the plates three times with PBST, the residual droplets were patted dry on absorbent paper as much as possible. Then, 100 μl of TMB color developing solution was added to each well, and the plates were incubated in the dark at room temperature for 5 min for color development. Subsequently, 50 μl of 2M H₂SO₄ stop solution was added to each well to terminate the substrate reaction. The OD values were read at 450 nm using a multimode microplate reader to analyze the binding ability of the tested antibodies to the target antigen human CD73-His.
(§2) Referring to the experimental method in Example 3, the affinity of 48A11-HuV33 for various mutant proteins of CD73-ND was determined. The SA protein was diluted to 1 μg/mL for coating the ELISA plates, and the biotinylated CD73 protein (CD73-biotin) was used at a concentration of 0.1 μg/mL.

CD73-ND-E143A = target: T2, CD73-ND-E143A (human, UniProt P21589 27-317)
T2 construct: Alanine mutant of CD73-ND
T2 sequence: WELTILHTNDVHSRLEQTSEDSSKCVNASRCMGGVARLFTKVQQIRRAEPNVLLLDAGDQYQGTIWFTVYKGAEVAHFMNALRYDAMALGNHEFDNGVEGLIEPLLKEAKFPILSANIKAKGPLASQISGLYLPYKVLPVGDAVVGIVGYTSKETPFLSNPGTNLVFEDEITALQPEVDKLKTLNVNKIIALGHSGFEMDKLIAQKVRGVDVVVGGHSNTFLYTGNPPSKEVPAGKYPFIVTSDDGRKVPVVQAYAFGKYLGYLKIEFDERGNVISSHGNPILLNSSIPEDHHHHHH
Procedure: as §1, §2

CD73-ND-V144A = target: T3, CD73-ND-V144A (human, UniProt P21589 27-317)
T3 construct: Alanine mutant of CD73-ND
T3 sequence: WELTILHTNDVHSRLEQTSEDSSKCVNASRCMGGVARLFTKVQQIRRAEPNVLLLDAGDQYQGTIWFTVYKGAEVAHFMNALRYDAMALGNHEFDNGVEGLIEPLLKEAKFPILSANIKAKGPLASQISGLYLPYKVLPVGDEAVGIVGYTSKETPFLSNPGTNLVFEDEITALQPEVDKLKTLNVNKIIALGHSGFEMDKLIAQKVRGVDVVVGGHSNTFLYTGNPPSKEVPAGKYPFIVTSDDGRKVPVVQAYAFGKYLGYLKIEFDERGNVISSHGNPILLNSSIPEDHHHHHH
Procedure: as §1, §2

CD73-ND-K180A = target: T4, CD73-ND-K180A (human, UniProt P21589 27-317)
T4 construct: Alanine mutant of CD73-ND
T4 sequence: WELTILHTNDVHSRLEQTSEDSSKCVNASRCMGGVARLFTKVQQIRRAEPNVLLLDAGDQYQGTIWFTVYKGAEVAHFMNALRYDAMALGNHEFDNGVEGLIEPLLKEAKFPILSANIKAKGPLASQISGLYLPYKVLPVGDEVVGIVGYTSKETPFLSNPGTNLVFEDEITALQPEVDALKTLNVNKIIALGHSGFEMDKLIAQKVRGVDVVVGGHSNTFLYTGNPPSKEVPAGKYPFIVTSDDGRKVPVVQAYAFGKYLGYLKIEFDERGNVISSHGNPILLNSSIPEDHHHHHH
Procedure: as §1, §2

CD73-ND-L181A = target: T5, CD73-ND-L181A (human, UniProt P21589 27-317)
T5 construct: Alanine mutant of CD73-ND
T5 sequence: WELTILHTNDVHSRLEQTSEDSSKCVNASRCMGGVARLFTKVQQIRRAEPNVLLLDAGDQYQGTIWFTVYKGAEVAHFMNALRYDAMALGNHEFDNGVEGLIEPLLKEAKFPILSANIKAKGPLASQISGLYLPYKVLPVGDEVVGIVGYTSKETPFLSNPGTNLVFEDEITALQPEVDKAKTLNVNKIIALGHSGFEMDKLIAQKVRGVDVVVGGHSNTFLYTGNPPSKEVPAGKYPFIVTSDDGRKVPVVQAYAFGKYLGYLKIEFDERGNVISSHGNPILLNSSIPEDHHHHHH
Procedure: as §1, §2

CD73-ND-N185A = target: T6, CD73-ND-N185A (human, UniProt P21589 27-317)
T6 construct: Alanine mutant of CD73-ND
T6 sequence: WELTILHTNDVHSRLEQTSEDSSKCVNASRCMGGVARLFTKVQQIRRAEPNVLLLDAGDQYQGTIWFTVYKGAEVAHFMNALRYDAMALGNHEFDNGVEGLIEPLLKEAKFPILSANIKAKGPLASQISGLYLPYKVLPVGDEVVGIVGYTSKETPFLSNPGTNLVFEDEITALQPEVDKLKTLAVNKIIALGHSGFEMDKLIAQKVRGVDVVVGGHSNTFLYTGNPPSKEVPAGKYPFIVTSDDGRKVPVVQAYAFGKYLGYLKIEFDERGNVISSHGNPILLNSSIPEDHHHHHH
Procedure: as §1, §2

B1: 48A11-HuV33 (antibody, human IgG4, V domains shown)
VH: QVQLVQSGAEVKKPGASVKVSCKASGYTFTSYWMHWVRQAPGQGLEWIGEINPSIGRTNYNEKFKSRVTLTRDTSTSTAYMELSSLRSEDTAVYYCARRVYGTMDYWGQGTLVTVSS
VL: DIQMTQSPSSLSASVGDRVTITCKASQDINSYLSWFQQKPGKSPKLLIYRANIWVDGVPSRFSGSGSGQDYTFTISSLQPEDIATYYCLQYDELYTFGQGTKVEIK
notes: Humanized
- Ratio(EC50) (CD73-ND-his): 1 fold
- Ratio(EC50) (CD73-ND-E143A): 1.4 fold
- Ratio(EC50) (CD73-ND-V144A): 2.5 fold
- Ratio(EC50) (CD73-ND-K180A): 2.7 fold
- Ratio(EC50) (CD73-ND-L181A): 1.9 fold
- Ratio(EC50) (CD73-ND-N185A): 1.6 fold
